Source: publication PMC10526015

Legend:
[1] = biological target: FcγR on THP-1 cells (FcγRI and FcγRII); test: flow cytometry on cells; THP-1 cells; ~100 nM IgG pre-complexed with 10 nM CD3ε-BSA (CD3ε peptide 21–47 on BSA) 20 min RT, highly avid; 30 min on ice; goat anti-human IgG PE; median fluorescence intensity
[2] = biological target: FcγR on THP-1 cells (FcγRI and FcγRII); test: flow cytometry on cells; THP-1 cells, 100 nM uncomplexed IgG, 30 min on ice, PBSF; goat anti-human IgG R-PE; median fluorescence intensity
[3] = biological target: ADI-26906 IgG1 LALE-D270A (L234A/L235E/D270A) (human); test: SPR; Biacore 8K or 8K+, 25 °C, HBS-EP+ pH 7.4; IgG captured (400–425 RU) by goat anti-human Fc on CM5; human FcγRI 100 nM injected; response units at one concentration
[4] = biological target: ADI-26906 IgG1 LALA-L309A (L234A/L235A/L309A) (human); test: as above
[5] = biological target: ADI-26906 IgG1 LALE-L328A (L234A/L235E/L328A) (human); test: as above
[6] = biological target: ADI-26906 IgG1 LALA-A327G (L234A/L235A/A327G) (human); test: as above
[7] = biological target: ADI-26906 IgG1 LALE-K322A (L234A/L235E/K322A) (human); test: as above
[8] = biological target: ADI-26906 IgG1 LALA-P331S (L234A/L235A/P331S) (human); test: as above
[9] = biological target: ADI-26906 IgG1 LALA-A330S/P331S (L234A/L235A/A330S/P331S) (human); test: as above
[10] = biological target: ADI-26906 IgG1 L234A/L235E (human); test: as above
[11] = biological target: ADI-26906 IgG1 LALA-L309V (L234A/L235A/L309V) (human); test: as above
[12] = biological target: ADI-26906 IgG1 LALA-H268Q (L234A/L235A/H268Q) (human); test: as above
[13] = biological target: ADI-26906 IgG1 LALA-K322A (L234A/L235A/K322A) (human); test: as above
[14] = biological target: ADI-26906 IgG1 LALA-Y296F (L234A/L235A/Y296F) (human); test: as above
[15] = biological target: ADI-26906 IgG1 LALE-A330S (L234A/L235E/A330S) (human); test: as above
[16] = biological target: ADI-26906 IgG1 LALA-A330S (L234A/L235A/A330S) (human); test: as above
[17] = biological target: ADI-26906 IgG1 LALE-A330S/P331S (L234A/L235E/A330S/P331S) (human); test: as above
[18] = biological target: ADI-26906 IgG1 L234A/L235A (human); test: as above
[19] = biological target: ADI-26906 IgG1 LALE-L309V (L234A/L235E/L309V) (human); test: as above
[20] = biological target: ADI-26906 IgG1 LALA-L328A (L234A/L235A/L328A) (human); test: as above
[21] = biological target: ADI-26906 IgG1 LALE-L309A (L234A/L235E/L309A) (human); test: as above
[22] = biological target: ADI-26906 IgG1 LALE-P331S (L234A/L235E/P331S) (human); test: as above
[23] = biological target: ADI-26906 IgG1 LALE-H268Q (L234A/L235E/H268Q) (human); test: as above
[24] = biological target: ADI-26906 IgG1 LALA-D270A (L234A/L235A/D270A) (human); test: as above
[25] = biological target: FcγR on THP-1 cells (FcγRI and FcγRII); test: flow cytometry on cells; THP-1 cells, 100 nM uncomplexed IgG, 30 min on ice, PBSF; goat anti-human IgG R-PE; median fluorescence intensity; remark: listed apart in the source
[26] = biological target: ADI-26906 IgG1 LALE-D265A (L234A/L235E/D265A) (human); test: bead-based flow cytometry (Dynal bead assay); biotinylated CD3ε peptide on streptavidin Dyna Beads, saturated with antibody; beads incubated with C1q alone or with C1q and human complement C3, 25 min RT, PBSF; anti-C1q APC and anti-C3 PE
[27] = biological target: ADI-26906 IgG1 LALA-D265A (L234A/L235A/D265A) (human); test: as above

Chain of ADI-26906 IgG1 LALA-K322A (L234A/L235A/K322A) (human) (heavy, as listed by the source, chain 1 of 2): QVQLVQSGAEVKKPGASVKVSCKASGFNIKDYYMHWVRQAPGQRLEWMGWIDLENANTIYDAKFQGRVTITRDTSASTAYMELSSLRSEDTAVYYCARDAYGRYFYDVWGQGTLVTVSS
Chain of ADI-26906 IgG1 LALA-K322A (L234A/L235A/K322A) (human) (light, as listed by the source, chain 2 of 2): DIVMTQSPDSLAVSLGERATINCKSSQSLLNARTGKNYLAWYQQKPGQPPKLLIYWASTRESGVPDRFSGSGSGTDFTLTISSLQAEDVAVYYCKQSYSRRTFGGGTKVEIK
Chain of ADI-26906 IgG1 L234A/L235E (human) (heavy, as listed by the source, chain 1 of 2): as the sequence (heavy, as listed by the source, chain 1 of 2) above
Chain of ADI-26906 IgG1 L234A/L235E (human) (light, as listed by the source, chain 2 of 2): as the sequence (light, as listed by the source, chain 2 of 2) above
Chain of ADI-26906 IgG1 LALE-P331S (L234A/L235E/P331S) (human) (heavy, as listed by the source, chain 1 of 2): as the sequence (heavy, as listed by the source, chain 1 of 2) above
Chain of ADI-26906 IgG1 LALE-P331S (L234A/L235E/P331S) (human) (light, as listed by the source, chain 2 of 2): as the sequence (light, as listed by the source, chain 2 of 2) above
Chain of ADI-26906 IgG1 LALE-D265A (L234A/L235E/D265A) (human) (heavy, as listed by the source, chain 1 of 2): as the sequence (heavy, as listed by the source, chain 1 of 2) above
Chain of ADI-26906 IgG1 LALE-D265A (L234A/L235E/D265A) (human) (light, as listed by the source, chain 2 of 2): as the sequence (light, as listed by the source, chain 2 of 2) above
Chain of ADI-26906 IgG1 LALA-A330S/P331S (L234A/L235A/A330S/P331S) (human) (heavy, as listed by the source, chain 1 of 2): as the sequence (heavy, as listed by the source, chain 1 of 2) above
Chain of ADI-26906 IgG1 LALA-A330S/P331S (L234A/L235A/A330S/P331S) (human) (light, as listed by the source, chain 2 of 2): as the sequence (light, as listed by the source, chain 2 of 2) above
Chain of ADI-26906 IgG1 LALE-A330S (L234A/L235E/A330S) (human) (heavy, as listed by the source, chain 1 of 2): as the sequence (heavy, as listed by the source, chain 1 of 2) above
Chain of ADI-26906 IgG1 LALE-A330S (L234A/L235E/A330S) (human) (light, as listed by the source, chain 2 of 2): as the sequence (light, as listed by the source, chain 2 of 2) above
Chain of ADI-26906 IgG1 LALA-A330S (L234A/L235A/A330S) (human) (heavy, as listed by the source, chain 1 of 2): as the sequence (heavy, as listed by the source, chain 1 of 2) above
Chain of ADI-26906 IgG1 LALA-A330S (L234A/L235A/A330S) (human) (light, as listed by the source, chain 2 of 2): as the sequence (light, as listed by the source, chain 2 of 2) above
Chain of ADI-26906 IgG1 LALE-K322A (L234A/L235E/K322A) (human) (heavy, as listed by the source, chain 1 of 2): as the sequence (heavy, as listed by the source, chain 1 of 2) above
Chain of ADI-26906 IgG1 LALE-K322A (L234A/L235E/K322A) (human) (light, as listed by the source, chain 2 of 2): as the sequence (light, as listed by the source, chain 2 of 2) above
Chain of ADI-26906 IgG1 LALE-L309A (L234A/L235E/L309A) (human) (heavy, as listed by the source, chain 1 of 2): as the sequence (heavy, as listed by the source, chain 1 of 2) above
Chain of ADI-26906 IgG1 LALE-L309A (L234A/L235E/L309A) (human) (light, as listed by the source, chain 2 of 2): as the sequence (light, as listed by the source, chain 2 of 2) above
Chain of ADI-26906 IgG1 LALA-Y296F (L234A/L235A/Y296F) (human) (heavy, as listed by the source, chain 1 of 2): as the sequence (heavy, as listed by the source, chain 1 of 2) above
Chain of ADI-26906 IgG1 LALA-Y296F (L234A/L235A/Y296F) (human) (light, as listed by the source, chain 2 of 2): as the sequence (light, as listed by the source, chain 2 of 2) above
Chain of ADI-26906 IgG1 LALE-A330S/P331S (L234A/L235E/A330S/P331S) (human) (heavy, as listed by the source, chain 1 of 2): as the sequence (heavy, as listed by the source, chain 1 of 2) above
Chain of ADI-26906 IgG1 LALE-A330S/P331S (L234A/L235E/A330S/P331S) (human) (light, as listed by the source, chain 2 of 2): as the sequence (light, as listed by the source, chain 2 of 2) above
Chain of ADI-26906 IgG1 LALA-L309V (L234A/L235A/L309V) (human) (heavy, as listed by the source, chain 1 of 2): as the sequence (heavy, as listed by the source, chain 1 of 2) above
Chain of ADI-26906 IgG1 LALA-L309V (L234A/L235A/L309V) (human) (light, as listed by the source, chain 2 of 2): as the sequence (light, as listed by the source, chain 2 of 2) above
Chain of ADI-26906 IgG1 LALE-H268Q (L234A/L235E/H268Q) (human) (heavy, as listed by the source, chain 1 of 2): as the sequence (heavy, as listed by the source, chain 1 of 2) above
Chain of ADI-26906 IgG1 LALE-H268Q (L234A/L235E/H268Q) (human) (light, as listed by the source, chain 2 of 2): as the sequence (light, as listed by the source, chain 2 of 2) above
Chain of ADI-26906 IgG1 L234A/L235A (human) (heavy, as listed by the source, chain 1 of 2): as the sequence (heavy, as listed by the source, chain 1 of 2) above
Chain of ADI-26906 IgG1 L234A/L235A (human) (light, as listed by the source, chain 2 of 2): as the sequence (light, as listed by the source, chain 2 of 2) above
Chain of ADI-26906 IgG1 LALA-P331S (L234A/L235A/P331S) (human) (heavy, as listed by the source, chain 1 of 2): as the sequence (heavy, as listed by the source, chain 1 of 2) above
Chain of ADI-26906 IgG1 LALA-P331S (L234A/L235A/P331S) (human) (light, as listed by the source, chain 2 of 2): as the sequence (light, as listed by the source, chain 2 of 2) above
Chain of ADI-26906 IgG1 LALA-D270A (L234A/L235A/D270A) (human) (heavy, as listed by the source, chain 1 of 2): as the sequence (heavy, as listed by the source, chain 1 of 2) above
Chain of ADI-26906 IgG1 LALA-D270A (L234A/L235A/D270A) (human) (light, as listed by the source, chain 2 of 2): as the sequence (light, as listed by the source, chain 2 of 2) above
Chain of ADI-26906 IgG1 LALE-D270A (L234A/L235E/D270A) (human) (heavy, as listed by the source, chain 1 of 2): as the sequence (heavy, as listed by the source, chain 1 of 2) above
Chain of ADI-26906 IgG1 LALE-D270A (L234A/L235E/D270A) (human) (light, as listed by the source, chain 2 of 2): as the sequence (light, as listed by the source, chain 2 of 2) above
Chain of ADI-26906 IgG1 LALA-H268Q (L234A/L235A/H268Q) (human) (heavy, as listed by the source, chain 1 of 2): as the sequence (heavy, as listed by the source, chain 1 of 2) above
Chain of ADI-26906 IgG1 LALA-H268Q (L234A/L235A/H268Q) (human) (light, as listed by the source, chain 2 of 2): as the sequence (light, as listed by the source, chain 2 of 2) above

ADI-26906 IgG1 LALE-L309A (L234A/L235E/L309A) (antibody)
MFI [1]: 2760 MFI

ADI-26906 IgG1 LALE-L309V (L234A/L235E/L309V) (antibody)
MFI [1]: 3540 MFI

ADI-26906 IgG1 LALA-A330S (L234A/L235A/A330S) (antibody)
MFI [1]: 4440 MFI

ADI-26906 IgG1 LALA-L328A (L234A/L235A/L328A) (antibody)
MFI [1]: 6420 MFI

ADI-26906 IgG1 L235A/G237A (antibody)
MFI [2]: 192 MFI

ADI-26906 IgG1 L234F/L235E (antibody)
MFI [2]: 369 MFI

ADI-26906 IgG1 LALE-K322A (L234A/L235E/K322A) (antibody)
MFI [1]: 2320 MFI

human FcγRI (CD64) (from UniProt P12314 16-374) (receptor)
response (RU) [3]: 1.8 RU | response (RU) [4]: 21.6 RU | response (RU) [5]: 3.5 RU | response (RU) [6]: 14.3 RU | response (RU) [7]: 4.6 RU | response (RU) [8]: 17.7 RU | response (RU) [9]: 15.8 RU | response (RU) [10]: 3.8 RU | response (RU) [11]: 25.2 RU | response (RU) [12]: 22.9 RU | response (RU) [13]: 19.9 RU | response (RU) [14]: 19.1 RU | response (RU) [15]: 3.3 RU | response (RU) [16]: 19.9 RU | response (RU) [17]: 2.6 RU | response (RU) [18]: 23.5 RU | response (RU) [19]: 4.9 RU | response (RU) [20]: 13.6 RU | response (RU) [21]: 4.2 RU | response (RU) [22]: 3.3 RU | response (RU) [23]: 4.3 RU | response (RU) [24]: 9.7 RU

ADI-26906 IgG1 LALE-P331S (L234A/L235E/P331S) (antibody)
MFI [1]: 1760 MFI

ADI-26906 IgG1 LALE-A330S/P331S (L234A/L235E/A330S/P331S) (antibody)
MFI [1]: 1390 MFI

ADI-26906 IgG1 LALA-D270A (L234A/L235A/D270A) (antibody)
MFI [1]: 2270 MFI

ADI-26906 IgG1 LALA-A330S/P331S (L234A/L235A/A330S/P331S) (antibody)
MFI [1]: 3840 MFI

ADI-26906 IgG1 LALA-L309V (L234A/L235A/L309V) (antibody)
MFI [1]: 4850 MFI

ADI-26906 IgG1 LALA-A327G (L234A/L235A/A327G) (antibody)
MFI [1]: 7010 MFI

ADI-26906 IgG1 LALE-H268Q (L234A/L235E/H268Q) (antibody)
MFI [1]: 4000 MFI

ADI-26906 IgG1 L234A/L235E (antibody)
MFI [2]: 192 MFI | MFI [1]: 5300 MFI | MFI [25]: 127 MFI

ADI-26906 IgG1 L234A/L235A (antibody)
MFI [2]: 491 MFI | MFI [1]: 5270 MFI | MFI [25]: 270 MFI

ADI-26906 IgG1 LALA-K322A (L234A/L235A/K322A) (antibody)
MFI [1]: 4390 MFI

ADI-26906 IgG1 LALA-Y296F (L234A/L235A/Y296F) (antibody)
MFI [1]: 3810 MFI

ADI-26906 IgG1 L234E/L235K (antibody)
MFI [2]: 176 MFI

ADI-26906 IgG1 LALE-A330S (L234A/L235E/A330S) (antibody)
MFI [1]: 2260 MFI

ADI-26906 IgG1 LALA-P331S (L234A/L235A/P331S) (antibody)
MFI [1]: 4220 MFI

ADI-26906 IgG1 L234A/L235K (antibody)
MFI [2]: 140 MFI

ADI-26906 IgG1 LALE-D270A (L234A/L235E/D270A) (antibody)
MFI [1]: 546 MFI

ADI-26906 IgG1 L234F/L235K (antibody)
MFI [2]: 386 MFI

human complement C1q (complex)
C1q Dynal FACS MFI [26]: 2280 MFI | C1q Dynal FACS MFI [27]: 1950 MFI

ADI-26906 IgG1 L234A/G237A (antibody)
MFI [2]: 184 MFI

ADI-26906 IgG1 LALA-H268Q (L234A/L235A/H268Q) (antibody)
MFI [1]: 4800 MFI

ADI-26906 IgG1 L234A/L235A/G237A (antibody)
MFI [2]: 150 MFI

ADI-26906 IgG1 LALA-L309A (L234A/L235A/L309A) (antibody)
MFI [1]: 4790 MFI

ADI-26906 IgG1 LALE-L328A (L234A/L235E/L328A) (antibody)
MFI [1]: 7040 MFI
